{"source": "patent US20120027722A1", "key": {"[1]": {"target": "soluble HCV E2 truncated at amino acid 661 (sE2661), His-tagged (Hepatitis C virus (isolate not stated))", "test": "SPR (BIAcore), sE2"}, "[2]": {"target": "soluble HCV E2 truncated at amino acid 661 (sE2661), His-tagged (Hepatitis C virus (isolate not stated))", "test": "SPR (BIAcore A100), antibody captured on anti-Fc chip, sE2 injected 1.56-50 nM, 1:1 Langmuir fit"}}}
{"substance": "AP33 Fab", "values": [{"measurement": "Kd", "setting": "[1]", "result": 50, "unit": "nM"}]}
{"substance": "AP33 antibody (as used in Example 2)", "values": [{"measurement": "Kd", "setting": "[2]", "result": "5 to 8", "unit": "nM"}]}
